# Test results as given in publication PMC10397247.
# T1: 4H1845-AA
# T1 chain: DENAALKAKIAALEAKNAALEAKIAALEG
# T2: 4H2190-AA
# T2 chain: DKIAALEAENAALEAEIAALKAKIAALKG
# T3: 4H2198-AA
# T3 chain: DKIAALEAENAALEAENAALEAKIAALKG
# T4: 4H2277-AA
# T4 chain: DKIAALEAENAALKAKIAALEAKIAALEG
# T5: 4H2354-AA
# T5 chain: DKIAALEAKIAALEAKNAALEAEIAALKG
# T6: 4H2466-AA
# T6 chain: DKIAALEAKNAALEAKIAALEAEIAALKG
# T7: 4H2505-AA
# T7 chain: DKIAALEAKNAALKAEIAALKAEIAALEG
# T8: 4H2592-AA
# T8 chain: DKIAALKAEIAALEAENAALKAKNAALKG
# T9: 4H2620-AA
# T9 chain: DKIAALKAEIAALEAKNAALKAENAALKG
# T10: 4H2621-AA
# T10 chain: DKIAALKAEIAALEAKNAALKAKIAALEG
# T11: 4H2699-AA
# T11 chain: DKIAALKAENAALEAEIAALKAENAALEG
# T12: 4H2754-AA
# T12 chain: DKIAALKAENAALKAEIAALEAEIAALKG
# T13: 4H2837-AA
# T13 chain: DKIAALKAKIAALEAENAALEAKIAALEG
# T14: 4H2944-AA
# T14 chain: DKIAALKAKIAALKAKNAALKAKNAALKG
# T15: 4H2949-AA
# T15 chain: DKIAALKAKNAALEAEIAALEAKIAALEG
# T16: 4H2961-AA
# T16 chain: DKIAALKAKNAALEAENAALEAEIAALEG
# T17: 4H3001-AA
# T17 chain: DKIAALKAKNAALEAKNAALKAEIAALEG
# T18: 4H3049-AA
# T18 chain: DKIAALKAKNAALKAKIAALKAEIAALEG
# T19: 4H3112-AA
# T19 chain: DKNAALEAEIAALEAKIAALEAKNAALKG
# T20: 4H3129-AA
# T20 chain: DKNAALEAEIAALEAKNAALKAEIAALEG
# T21: 4H3133-AA
# T21 chain: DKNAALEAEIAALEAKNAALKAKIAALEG
# T22: 4H3162-AA
# T22 chain: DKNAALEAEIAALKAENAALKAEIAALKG
# T23: 4H3413-AA
# T23 chain: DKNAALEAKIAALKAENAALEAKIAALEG
# T24: 4H347-AA
# T24 chain: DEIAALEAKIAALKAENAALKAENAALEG
# T25: 4H3629-AA
# T25 chain: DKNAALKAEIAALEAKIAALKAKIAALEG
# T26: 4H3655-AA
# T26 chain: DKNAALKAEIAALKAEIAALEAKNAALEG
# T27: 4H3782-AA
# T27 chain: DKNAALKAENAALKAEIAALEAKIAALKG
# T28: 4H380-AA
# T28 chain: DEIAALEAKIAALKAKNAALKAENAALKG
# T29: 4H3844-AA
# T29 chain: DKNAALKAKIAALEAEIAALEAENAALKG
# T30: 4H3969-AA
# T30 chain: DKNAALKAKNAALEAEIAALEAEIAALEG
# T31: 4H464-AA
# T31 chain: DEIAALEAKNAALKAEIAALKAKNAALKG
# T32: 4H48-AA
# T32 chain: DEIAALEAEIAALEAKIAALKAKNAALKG
# T33: 4H56-AA
# T33 chain: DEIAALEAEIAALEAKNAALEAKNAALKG
# T34: 4H605-AA
# T34 chain: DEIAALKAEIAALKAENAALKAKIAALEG
# T35: 4H794-AA
# T35 chain: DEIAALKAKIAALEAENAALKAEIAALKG
# T36: P10-AA
# T36 chain: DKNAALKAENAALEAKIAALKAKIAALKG
# T37: P9-AA
# T37 chain: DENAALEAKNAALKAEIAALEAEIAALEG
# B1: 4H1257-AA (peptide)
# chain: DENAALEAENAALKAKIAALKAEIAALEG
# B2: 4H2165-AA (peptide)
# chain: DKIAALEAEIAALKAKNAALEAKIAALEG
# B3: 4H1845-AA (peptide)
# chain: DENAALKAKIAALEAKNAALEAKIAALEG
# B4: 4H2253-AA (peptide)
# chain: DKIAALEAENAALKAEIAALKAKIAALEG
# B5: 4H249-AA (peptide)
# chain: DEIAALEAENAALKAKNAALKAEIAALEG
# B6: 4H1064-AA (peptide)
# chain: DENAALEAEIAALEAKIAALEAKNAALKG
# B7: 4H3606-AA (peptide)
# chain: DKNAALKAEIAALEAENAALEAKIAALKG
# Biological target: T1, 4H1845-AA
# Assay: two-hybrid library CCmax;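 further: natural log of median RNA to DNA barcode read ratio; higher means stronger binding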
# Conditions: mean of both orientations
row,interaction score,Binder
1,-1.49,B1

# Biological target: T2, 4H2190-AA
# Assay: two-hybrid library CCmax;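 further: natural log of median RNA to DNA barcode read ratio; higher means stronger binding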
# Conditions: mean of both orientations
row,interaction score,Binder
1,-1.12,B2

# Biological target: T3, 4H2198-AA
# Assay: two-hybrid library CCmax;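 further: natural log of median RNA to DNA barcode read ratio; higher means stronger binding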
# Conditions: mean of both orientations
row,interaction score,Binder
1,-1.5,B3

# Biological target: T4, 4H2277-AA
# Assay: two-hybrid library CCmax;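 further: natural log of median RNA to DNA barcode read ratio; higher means stronger binding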
# Conditions: mean of both orientations
row,interaction score,Binder
1,-1.36,B2

# Biological target: T5, 4H2354-AA
# Assay: two-hybrid library CCmax
# Conditions: mean of both orientations
row,interaction score,Binder
1,-1.76,B2

# Biological target: T6, 4H2466-AA
# Assay: two-hybrid library CCmax
# Conditions: mean of both orientations
row,interaction score,Binder
1,-1.68,B4
2,-1.49,B2

# Biological target: T7, 4H2505-AA
# Assay: two-hybrid library CCmax
# Conditions: mean of both orientations
row,interaction score,Binder
1,-1.7,B2

# Biological target: T8, 4H2592-AA
# Assay: two-hybrid library CCmax
# Conditions: mean of both orientations
row,interaction score,Binder
1,-1.61,B4
2,-0.973,B2
3,-0.437,B5

# Biological target: T9, 4H2620-AA
# Assay: two-hybrid library CCmax
# Conditions: mean of both orientations
row,interaction score,Binder
1,-1.86,B3

# Biological target: T10, 4H2621-AA
# Assay: two-hybrid library CCmax
# Conditions: mean of both orientations
row,interaction score,Binder
1,-1.07,B6
2,-0.883,B1
3,-1.28,B5

# Biological target: T11, 4H2699-AA
# Assay: two-hybrid library CCmax
# Conditions: mean of both orientations
row,interaction score,Binder
1,-1.48,B6
2,-0.951,B1
3,-1.1,B5

# Biological target: T12, 4H2754-AA
# Assay: two-hybrid library CCmax
# Conditions: mean of both orientations
row,interaction score,Binder
1,-0.0505,B2

# Biological target: T13, 4H2837-AA
# Assay: two-hybrid library CCmax
# Conditions: not given
row,interaction score,Binder
1,0.959,B2

# Biological target: T14, 4H2944-AA
# Assay: two-hybrid library CCmax
# Conditions: mean of both orientations
row,interaction score,Binder
1,-1.53,B2

# Biological target: T15, 4H2949-AA
# Assay: two-hybrid library CCmax
# Conditions: mean of both orientations
row,interaction score,Binder
1,-1.21,B2

# Biological target: T16, 4H2961-AA
# Assay: two-hybrid library CCmax
# Conditions: mean of both orientations
row,interaction score,Binder
1,-1.24,B6
2,-1.08,B1
3,1.36,B5

# Biological target: T17, 4H3001-AA
# Assay: two-hybrid library CCmax
# Conditions: mean of both orientations
row,interaction score,Binder
1,-1.42,B4
2,-1.67,B2
3,-1.12,B5

# Biological target: T18, 4H3049-AA
# Assay: two-hybrid library CCmax
# Conditions: mean of both orientations
row,interaction score,Binder
1,0.863,B6
2,-0.309,B1
3,-1.71,B5

# Biological target: T19, 4H3112-AA
# Assay: two-hybrid library CCmax
# Conditions: mean of both orientations
row,interaction score,Binder
1,0.173,B1
2,-0.868,B2
3,-1.24,B3

# Biological target: T20, 4H3129-AA
# Assay: two-hybrid library CCmax
# Conditions: mean of both orientations
row,interaction score,Binder
1,-1.71,B6
2,-1.9,B1
3,-2.01,B5

# Biological target: T21, 4H3133-AA
# Assay: two-hybrid library CCmax
# Conditions: mean of both orientations
row,interaction score,Binder
1,-0.676,B3

# Biological target: T22, 4H3162-AA
# Assay: two-hybrid library CCmax
# Conditions: mean of both orientations
row,interaction score,Binder
1,-1.73,B3

# Biological target: T23, 4H3413-AA
# Assay: two-hybrid library CCmax
# Conditions: mean of both orientations
row,interaction score,Binder
1,-0.729,B3

# Biological target: T24, 4H347-AA
# Assay: two-hybrid library CCmax
# Conditions: mean of both orientations
row,interaction score,Binder
1,-1.66,B4
2,-1.3,B2
3,0.274,B5

# Biological target: T25, 4H3629-AA
# Assay: two-hybrid library CCmax
# Conditions: mean of both orientations
row,interaction score,Binder
1,0.654,B6
2,0.329,B1
3,-1.69,B5

# Biological target: T26, 4H3655-AA
# Assay: two-hybrid library CCmax
# Conditions: mean of both orientations
row,interaction score,Binder
1,-1.37,B2
2,-1.72,B7

# Biological target: T27, 4H3782-AA
# Assay: two-hybrid library CCmax
# Conditions: mean of both orientations
row,interaction score,Binder
1,-0.855,B6
2,2.21,B1
3,-1.6,B3
4,1.43,B5

# Biological target: T28, 4H380-AA
# Assay: two-hybrid library CCmax
# Conditions: mean of both orientations
row,interaction score,Binder
1,-0.648,B6
2,-1.14,B1
3,-1.27,B5

# Biological target: T29, 4H3844-AA
# Assay: two-hybrid library CCmax
# Conditions: mean of both orientations
row,interaction score,Binder
1,-1.35,B2
2,-1.17,B7

# Biological target: T30, 4H3969-AA
# Assay: two-hybrid library CCmax
# Conditions: mean of both orientations
row,interaction score,Binder
1,-1.31,B6
2,0.285,B1
3,-1.58,B5

# Biological target: T31, 4H464-AA
# Assay: two-hybrid library CCmax
# Conditions: not given
row,interaction score,Binder
1,-1.84,B6

# Same assay, conditions: mean of both orientations
row,interaction score,Binder
1,-1.07,B1
2,-1.77,B5

# Biological target: T32, 4H48-AA
# Assay: two-hybrid library CCmax
# Conditions: mean of both orientations
row,interaction score,Binder
1,-1.31,B2
2,-0.695,B7

# Biological target: T33, 4H56-AA
# Assay: two-hybrid library CCmax
# Conditions: mean of both orientations
row,interaction score,Binder
1,-1.23,B4
2,-0.766,B2
3,-1.62,B5

# Biological target: T34, 4H605-AA
# Assay: two-hybrid library CCmax
# Conditions: mean of both orientations
row,interaction score,Binder
1,-1.15,B2
2,0.159,B7

# Biological target: T35, 4H794-AA
# Assay: two-hybrid library CCmax
# Conditions: mean of both orientations
row,interaction score,Binder
1,-1.31,B2
2,-0.14,B7

# Biological target: T36, P10-AA
# Assay: two-hybrid library CCmax
# Conditions: mean of both orientations
row,interaction score,Binder
1,0.12,B7

# Biological target: T37, P9-AA
# Assay: two-hybrid library CCmax
# Conditions: mean of both orientations
row,interaction score,Binder
1,-0.51,B7
